Experimental data as given in PMC12135937.

What was measured:
[1] = target: DIP-β isoform G (Drosophila melanogaster); assay: SPR; Biacore T100, CM4 chip; DIPs immobilised by amine coupling (700-900 RU), monomeric Dpr analytes in 3-fold dilution series (0.012 to 9, 27 or 81 µM); 25 °C; 10 mM Tris-HCl pH 7.2, 150 mM NaCl, 1 mM EDTA, 1 mg/mL BSA, 0.01% Tween-20; equilibrium responses fit to a 1:1 model
[2] = target: DIP-β isoform C (Drosophila melanogaster); assay: as above
DIP-β isoform C (Drosophila melanogaster), sequence (main, as listed by the source): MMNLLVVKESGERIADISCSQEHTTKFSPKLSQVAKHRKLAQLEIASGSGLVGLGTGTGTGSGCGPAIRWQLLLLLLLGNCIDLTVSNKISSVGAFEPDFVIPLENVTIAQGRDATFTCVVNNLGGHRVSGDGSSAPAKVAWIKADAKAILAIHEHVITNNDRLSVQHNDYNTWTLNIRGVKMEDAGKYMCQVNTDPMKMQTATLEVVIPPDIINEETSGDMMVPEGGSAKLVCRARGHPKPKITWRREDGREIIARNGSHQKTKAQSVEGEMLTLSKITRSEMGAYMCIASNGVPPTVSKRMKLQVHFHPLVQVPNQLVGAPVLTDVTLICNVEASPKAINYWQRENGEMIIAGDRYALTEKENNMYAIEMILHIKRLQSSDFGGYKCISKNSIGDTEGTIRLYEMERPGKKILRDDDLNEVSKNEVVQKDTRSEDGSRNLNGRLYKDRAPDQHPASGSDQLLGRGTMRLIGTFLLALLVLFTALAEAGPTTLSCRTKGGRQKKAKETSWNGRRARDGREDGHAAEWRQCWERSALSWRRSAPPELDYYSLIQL

DIP-β isoform G (Drosophila melanogaster), sequence (main, as listed by the source): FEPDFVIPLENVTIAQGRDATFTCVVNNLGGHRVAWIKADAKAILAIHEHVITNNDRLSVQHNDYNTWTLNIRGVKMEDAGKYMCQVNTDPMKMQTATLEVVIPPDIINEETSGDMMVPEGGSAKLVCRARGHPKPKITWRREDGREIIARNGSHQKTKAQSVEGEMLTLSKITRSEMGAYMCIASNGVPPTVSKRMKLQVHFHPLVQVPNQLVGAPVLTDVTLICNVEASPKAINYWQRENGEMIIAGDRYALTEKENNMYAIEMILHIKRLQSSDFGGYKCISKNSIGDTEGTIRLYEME

Substance: Dpr16 (natural protein)
- Kd [1]: 60 µM
- Kd [2]: 180 µM

Substance: Dpr8 (natural protein)
- Kd [1]: 0.789 µM
- Kd [2]: 1.32 µM

Substance: Dpr9 (natural protein)
- Kd [1]: 3.41 µM
- Kd [2]: 5.97 µM

Substance: Dpr11 (natural protein)
- Kd [1]: 180 µM
- Kd [2]: 106 µM

Substance: Dpr17 (natural protein)
- Kd [1]: 58.7 µM
- Kd [2]: 176 µM
